Experimental data reported in patent publication US20190040155A1 (AFFIMED, published 2019).

What was measured:
[1] = target: T1, CD30 (UniProt P28908 19-595, limits assumed); test: flow cytometry on Karpas-299 cells
T1 construct: whole, on cells; also called CD30 on CD19-/CD30+ KARPAS-299 cells
T1 sequence (looked up): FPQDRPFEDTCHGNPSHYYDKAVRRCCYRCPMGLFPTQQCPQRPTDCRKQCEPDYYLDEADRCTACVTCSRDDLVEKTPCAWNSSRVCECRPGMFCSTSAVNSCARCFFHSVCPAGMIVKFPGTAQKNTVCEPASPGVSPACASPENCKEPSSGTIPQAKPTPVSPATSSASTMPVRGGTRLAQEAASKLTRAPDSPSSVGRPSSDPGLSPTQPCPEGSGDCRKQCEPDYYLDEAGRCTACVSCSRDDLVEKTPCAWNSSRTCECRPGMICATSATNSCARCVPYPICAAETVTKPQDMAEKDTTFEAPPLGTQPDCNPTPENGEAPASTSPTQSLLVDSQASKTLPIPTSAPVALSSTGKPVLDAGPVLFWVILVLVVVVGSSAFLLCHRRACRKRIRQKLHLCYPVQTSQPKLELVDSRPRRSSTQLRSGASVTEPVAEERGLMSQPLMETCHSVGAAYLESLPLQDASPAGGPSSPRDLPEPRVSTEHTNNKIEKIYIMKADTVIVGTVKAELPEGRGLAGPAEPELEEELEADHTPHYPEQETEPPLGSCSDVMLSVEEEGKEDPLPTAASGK
Description: (§1) Single-positive CD19+/CD30− Raji and CD19-/CD30+ KARPAS-299 cells as well as double-positive CD19+/CD30+ MEC-1 were stained with serial dilutions of the trispecific antibody molecules and cell surface bound antibodies were detected by mAb anti-His followed by FITC-conjugated goat anti-mouse IgG. Mean fluorescence intensities determined by flow cytometry were used to calculate KD values by non-linear regression. KD values for trispecific antibody molecules were determined in two independent experiments. […]
(§2) After repeated washing with FACS buffer, cell-bound antibodies were detected with 10 μg/mL anti-His mAb 13/45/31-2 (Dianova, Hamburg, Germany, cat.: DIA910-1MG) followed by 15 μg/mL FITC-conjugated goat anti-mouse antibody (Dianova, cat.: 115-095-062). […] The fluorescence of 2-5×10³ living cells was measured using a Beckman-Coulter FC500 MPL flow cytometer using the MXP software (Beckman-Coulter, Krefeld, Germany) or a Millipore Guava EasyCyte flow cytometer (Merck Millipore, Schwalbach, Germany). Mean fluorescence intensities of the cell samples were calculated using CXP software (Beckman-Coulter) or Incyte software (Merck Millipore, Schwalbach, Germany). […]

[2] = target: T2, CD16A (FcγRIIIA) (human, UniProt P08637 17-254); test: flow cytometry on primary NK cells
T2 construct: whole, on cells; also called CD16A on primary NK cells
T2 sequence (P08637 17-254): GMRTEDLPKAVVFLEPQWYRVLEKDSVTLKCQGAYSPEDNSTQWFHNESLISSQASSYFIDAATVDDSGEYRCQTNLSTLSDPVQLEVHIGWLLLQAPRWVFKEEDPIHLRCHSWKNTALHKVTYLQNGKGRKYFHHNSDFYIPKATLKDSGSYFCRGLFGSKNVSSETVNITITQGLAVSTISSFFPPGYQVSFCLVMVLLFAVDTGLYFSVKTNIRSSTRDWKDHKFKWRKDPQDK
Description: Aliquots of the indicated cell lines were incubated with […] of serial dilutions of His-tagged antibodies in FACS buffer (PBS, Invitrogen, cat.: 14190-169) containing 2% heat-inactivated FCS (Invitrogen, cat.: 10270-106), 0.1% sodium azide (Roth, Karlsruhe, Germany, cat.: A1430.0100) for 45 min on ice. Staining of NK-cells was performed in FACS buffer supplemented with 1 mg/mL polyclonal human antibody (Gammanorm, Octapharma, Langenfeld, Germany, cat.: PZN-2451445) to block binding of antibodies to Fc[…] receptors.
After repeated washing with FACS buffer, cell-bound antibodies were detected with 10 μg/mL anti-His mAb 13/45/31-2 (Dianova, Hamburg, Germany, cat.: DIA910-1MG) followed by 15 μg/mL FITC-conjugated goat anti-mouse antibody (Dianova, cat.: 115-095-062). The cells were then washed again and resuspended in 0.2 mL of FACS buffer containing 2 μg/mL propidium iodide (PI) (Sigma, cat.: P4170) in order to exclude dead cells. The fluorescence of 2-5×10³ living cells was measured using a Beckman-Coulter FC500 MPL flow cytometer using the MXP software (Beckman-Coulter, Krefeld, Germany) or a Millipore Guava EasyCyte flow cytometer (Merck Millipore, Schwalbach, Germany). Mean fluorescence intensities of the cell samples were calculated using CXP software (Beckman-Coulter) or Incyte software (Merck Millipore, Schwalbach, Germany). After subtracting the fluorescence intensity values of the cells stained with the secondary and tertiary reagents alone, the values were used for analysis using the GraphPad Prism (GraphPad Prism version 6.00 for Windows, GraphPad Software, La Jolla Calif. USA). For the calculation of KD, the equation for one-site-binding (hyperbolic) was used.

[3] = target: T3, CD19 (UniProt P15391 20-556, limits assumed); test: flow cytometry on Raji cells
T3 construct: whole, on cells; Raji is a human cell line; also called CD19 on CD19+/CD30- Raji cells
T3 sequence (looked up): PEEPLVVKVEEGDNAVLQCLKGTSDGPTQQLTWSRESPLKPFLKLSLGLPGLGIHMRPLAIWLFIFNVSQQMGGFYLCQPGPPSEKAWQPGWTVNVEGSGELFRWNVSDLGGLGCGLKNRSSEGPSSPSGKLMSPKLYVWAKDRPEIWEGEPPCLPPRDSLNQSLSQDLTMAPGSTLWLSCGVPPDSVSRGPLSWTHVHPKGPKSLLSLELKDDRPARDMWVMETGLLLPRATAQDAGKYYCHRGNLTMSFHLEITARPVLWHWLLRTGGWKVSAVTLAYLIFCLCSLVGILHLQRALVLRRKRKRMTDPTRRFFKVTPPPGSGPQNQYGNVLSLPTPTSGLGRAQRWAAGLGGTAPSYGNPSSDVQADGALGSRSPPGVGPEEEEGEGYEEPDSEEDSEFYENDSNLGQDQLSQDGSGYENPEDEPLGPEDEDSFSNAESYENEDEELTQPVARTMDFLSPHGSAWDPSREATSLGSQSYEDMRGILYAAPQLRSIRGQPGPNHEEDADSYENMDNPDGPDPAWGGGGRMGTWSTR
Description: as §1, §2

[4] = target: T1, CD30; test: flow cytometry on KARPAS-299 cells, anti-His detection
Description: as §1, §2

[5] = target: T3, CD19; test: flow cytometry on Raji cells, anti-His detection
Description: as §1, §2

Measured: binding result

B1: aTriFlex_104 (other)
chain 1: QVQLQQSGAELARPGASVKMSCKASGYTFTTYTIHWVRQRPGHDLEWIGYINPSSGYSDYNQNFKGKTTLTADKSSNTAYMQLNSLTSEDSAVYYCARRADYGNYEYTWFAYWGQGTTVTVSSGGSGGSGGSGGSGGSGGSDIVMTQSPKFMSTSVGDRVTVTCKASQNVGTNVAWFQQKPGQSPKVLIYSASYRYSGVPDRFTGSGSGTDFTLTISNVQSEDLAEYFCQQYHTYPLTFGGGTKLEINGGSGGSGGSSYVLTQPSSVSVAPGQTATISCGGHNIGSKNVHWYQQRPGQSPVLVIYQDNKRPSGIPERFSGSNSGNTATLTISGTQAMDEADYYCQVWDNYSVLFGGGTKLTVLGGSGGSGGSSYVLTQPSSVSVAPGQTATISCGGHNIGSKNVHWYQQRPGQSPVLVIYQDNKRPSGIPERFSGSNSGNTATLTISGTQAMDEADYYCQVWDNYSVLFGGGTKLTVLGGSGGSGGSSYVLTQPPSVSVAPGQTARITCGGNNIGSKTVHWYQQKPGQAPVLVVYDDSDRPSGIPERFSGSNSGNTATLTISRVEAGDEADYYCQVGTDWSDHLQVFGGGTKLTVLGGSGGSGGSGGSGGSGGSGGSEVQLVQSGAEVKKPGESLKISCKGSGYSFTSNWIGWVRQMPGKGLEWMGMIWPGDSDTMYSPSFQGQVTISADESINTAYLQWSSLKASDTAMYYCARRETTTVGRYYYAMDYWGQGTLVTVSSAAAGSDYKDDDDK
chain 2: QVQLVQSGAEVKKPGESLKVSCKASGYTFTSYYMHWVRQAPGQGLEWMGIINPSGGSTSYAQKFQGRVTMTRDTSTSTVYMELSSLRSEDTAVYYCARGSAYYYDFADYWGQGTLVTVSSGGSGGSGGSQVQLVQSGAEVKKPGESLKVSCKASGYTFTSYYMHWVRQAPGQGLEWMGIINPSGGSTSYAQKFQGRVTMTRDTSTSTVYMELSSLRSEDTAVYYCARGSAYYYDFADYWGQGTLVTVSSAAAGSHHHHHH
notes: Tetravalent, trispecific (CD30, CD19, CD16A) Fv antibody without constant domains; heterodimer of two polypeptides; also called antibody molecule d); construct d)
binds: [1] | [2] | [3]

B2: aTriFlex_101 (other)
chain 1: QVQLQQSGAELARPGASVKMSCKASGYTFTTYTIHWVRQRPGHDLEWIGYINPSSGYSDYNQNFKGKTTLTADKSSNTAYMQLNSLTSEDSAVYYCARRADYGNYEYTWFAYWGQGTTVTVSSGGSGGSGGSGGSGGSGGSDIVMTQSPKFMSTSVGDRVTVTCKASQNVGTNVAWFQQKPGQSPKVLIYSASYRYSGVPDRFTGSGSGTDFTLTISNVQSEDLAEYFCQQYHTYPLTFGGGTKLEINGGSGGSGGSQVQLVQSGAEVKKPGESLKVSCKASGYTFTSYYMHWVRQAPGQGLEWMGIINPSGGSTSYAQKFQGRVTMTRDTSTSTVYMELSSLRSEDTAVYYCARGSAYYYDFADYWGQGTLVTVSSGGSGGSGGSQVQLVQSGAEVKKPGESLKVSCKASGYTFTSYYMHWVRQAPGQGLEWMGIINPSGGSTSYAQKFQGRVTMTRDTSTSTVYMELSSLRSEDTAVYYCARGSAYYYDFADYWGQGTLVTVSSGGSGGSGGSSYVLTQPPSVSVAPGQTARITCGGNNIGSKTVHWYQQKPGQAPVLVVYDDSDRPSGIPERFSGSNSGNTATLTISRVEAGDEADYYCQVGTDWSDHLQVFGGGTKLTVLGGSGGSGGSGGSGGSGGSGGSEVQLVQSGAEVKKPGESLKISCKGSGYSFTSNWIGWVRQMPGKGLEWMGMIWPGDSDTMYSPSFQGQVTISADESINTAYLQWSSLKASDTAMYYCARRETTTVGRYYYAMDYWGQGTLVTVSSAAAGSHHHHHH
chain 2: SYVLTQPSSVSVAPGQTATISCGGHNIGSKNVHWYQQRPGQSPVLVIYQDNKRPSGIPERFSGSNSGNTATLTISGTQAMDEADYYCQVWDNYSVLFGGGTKLTVLGGSGGSGGSSYVLTQPSSVSVAPGQTATISCGGHNIGSKNVHWYQQRPGQSPVLVIYQDNKRPSGIPERFSGSNSGNTATLTISGTQAMDEADYYCQVWDNYSVLFGGGTKLTVLAAAGSDYKDDDDK
notes: Tetravalent, trispecific (CD30, CD19, CD16A) Fv antibody without constant domains; heterodimer of two non-covalently associated polypeptides; also called antibody molecule a); construct a)
binds: [4] | [2] | [5]

B3: aTriFlex_102 (other)
chain 1: SYVLTQPPSVSVAPGQTARITCGGNNIGSKTVHWYQQKPGQAPVLVVYDDSDRPSGIPERFSGSNSGNTATLTISRVEAGDEADYYCQVGTDWSDHLQVFGGGTKLTVLGGSGGSGGSGGSGGSGGSGGSEVQLVQSGAEVKKPGESLKISCKGSGYSFTSNWIGWVRQMPGKGLEWMGMIWPGDSDTMYSPSFQGQVTISADESINTAYLQWSSLKASDTAMYYCARRETTTVGRYYYAMDYWGQGTLVTVSSGGSGGSGGSQVQLVQSGAEVKKPGESLKVSCKASGYTFTSYYMHWVRQAPGQGLEWMGIINPSGGSTSYAQKFQGRVTMTRDTSTSTVYMELSSLRSEDTAVYYCARGSAYYYDFADYWGQGTLVTVSSGGSGGSGGSQVQLVQSGAEVKKPGESLKVSCKASGYTFTSYYMHWVRQAPGQGLEWMGIINPSGGSTSYAQKFQGRVTMTRDTSTSTVYMELSSLRSEDTAVYYCARGSAYYYDFADYWGQGTLVTVSSGGSGGSGGSQVQLQQSGAELARPGASVKMSCKASGYTFTTYTIHWVRQRPGHDLEWIGYINPSSGYSDYNQNFKGKTTLTADKSSNTAYMQLNSLTSEDSAVYYCARRADYGNYEYTWFAYWGQGTTVTVSSGGSGGSGGSGGSGGSGGSDIVMTQSPKFMSTSVGDRVTVTCKASQNVGTNVAWFQQKPGQSPKVLIYSASYRYSGVPDRFTGSGSGTDFTLTISNVQSEDLAEYFCQQYHTYPLTFGGGTKLEINAAAGSHHHHHH
chain 2: SYVLTQPSSVSVAPGQTATISCGGHNIGSKNVHWYQQRPGQSPVLVIYQDNKRPSGIPERFSGSNSGNTATLTISGTQAMDEADYYCQVWDNYSVLFGGGTKLTVLGGSGGSGGSSYVLTQPSSVSVAPGQTATISCGGHNIGSKNVHWYQQRPGQSPVLVIYQDNKRPSGIPERFSGSNSGNTATLTISGTQAMDEADYYCQVWDNYSVLFGGGTKLTVLAAAGSDYKDDDDK
notes: Tetravalent, trispecific (CD30, CD19, CD16A) Fv antibody without constant domains; heterodimer of two polypeptides; also called antibody molecule b); construct b)
binds: [4] | [2] | [5]
